The target in this test is human EPO receptor (EPO-Rc) (human) (UniProt P19235). The test is described as follows: cell-based or functional assay.

Values joined by “and” are separate entries in the source; they are usually repeats but may differ in a detail not shown here. Equal values may be shown once.

Chain of UniProt P19235 (P19235 25-508): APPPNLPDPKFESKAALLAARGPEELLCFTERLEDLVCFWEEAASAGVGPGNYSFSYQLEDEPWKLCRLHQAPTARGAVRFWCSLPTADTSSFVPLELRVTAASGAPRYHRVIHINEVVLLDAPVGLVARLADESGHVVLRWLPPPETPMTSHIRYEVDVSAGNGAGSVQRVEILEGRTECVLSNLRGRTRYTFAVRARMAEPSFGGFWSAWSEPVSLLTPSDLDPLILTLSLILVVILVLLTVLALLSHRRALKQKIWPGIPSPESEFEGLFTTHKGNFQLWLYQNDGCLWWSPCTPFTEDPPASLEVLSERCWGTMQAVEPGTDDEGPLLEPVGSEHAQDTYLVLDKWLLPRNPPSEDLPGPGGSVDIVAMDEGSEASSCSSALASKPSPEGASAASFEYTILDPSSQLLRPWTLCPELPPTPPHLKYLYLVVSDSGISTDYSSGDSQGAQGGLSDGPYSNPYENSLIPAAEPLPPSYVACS

With “Recombinant human EPO (rHuEPO) (from UniProt P01588 28-192) (ligand)”, the proliferation of the 32D1.9 cells (MTT, OD 550 nm); in vitro biological activity on a molar basis was 3e+06 units/µmole and 4e+06 units/µmole.

The values above are taken from patent publication US20040175824A1.
